Results published in US20250145697A1 (WASHINGTON UNIVERSITY, published 2025).
Numbering of substitutions follows the chain as printed.

What was measured:
[1] = biological target: T1, recombinant alipidated human ApoE4 (human, UniProt P02649 19-317); assay: SPR, biotinylated recombinant apoE4 captured on a streptavidin chip; column Apparent KD (M)
T1 construct: mature; full length recombinant protein made in E. coli or bought; biotinylated for SPR; position 112 is counted on the mature protein, not on the precursor entry; also called recApoE; non-lipidated ApoE4
T1 sequence (P02649 19-317 C130R): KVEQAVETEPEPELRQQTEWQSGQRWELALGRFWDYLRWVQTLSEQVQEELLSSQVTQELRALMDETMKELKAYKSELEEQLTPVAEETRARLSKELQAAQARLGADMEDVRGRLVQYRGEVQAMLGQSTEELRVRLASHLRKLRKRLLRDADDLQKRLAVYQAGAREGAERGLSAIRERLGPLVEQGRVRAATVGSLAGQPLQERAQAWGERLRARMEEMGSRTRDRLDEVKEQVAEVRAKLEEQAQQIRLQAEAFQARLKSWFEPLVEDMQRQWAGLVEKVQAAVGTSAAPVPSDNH
Description: (§1) ELISA plates were coated with 0.5 μg/ml of recombinant apoE2 (square), apoE3 (open circle), or apoE4 (closed circle). Then different concentrations of (A) HJ151, (B) HJ153, (C) HJ154, or (D) HJ156 were loaded on the plates. Horse-radish peroxidase labeled goat anti-mouse secondary antibodies were used to detect binding. […] HJ151 is specific for ApoE4 and HJ156 binds only ApoE3 and ApoE4. FIG. 5E-H are graphs depicting surface plasmon resonance profiles for various antibodies. Anti-ApoE antibodies were serially diluted 3-fold (starting at 100 nM for HJ153 (E), and 1000 nM for HJ151 (F), and […] (G)) for detection of binding to biotinylated-recombinant apoE4 captured on a streptavidin chip. Samples were injected at a flow rate of 30 μl/minute. (H) Apparent KD values of HJ151, HJ153 and HJ156 were calculated based on the SPR experiment.
(§2) ELISA plates were coated with 0.5 μg/ml of recombinant apoE2, apoE3, or apoE4. Then different concentrations of HJ151 (FIG. 5A), HJ153 (FIG. 5B), HJ154 (FIG. 5C), or HJ156 (FIG. 5D) were loaded on the plates. Horse-radish peroxidase labeled goat anti-mouse secondary antibodies were used to detect binding. […] HJ151 is specific for ApoE4 and HJ156 binds only ApoE3 and ApoE4. Surface plasmon resonance profiles for various antibodies was also performed.

[2] = biological target: T2, murine ApoE (mouse, UniProt P08226 19-311); assay: not described
T2 sequence (looked up): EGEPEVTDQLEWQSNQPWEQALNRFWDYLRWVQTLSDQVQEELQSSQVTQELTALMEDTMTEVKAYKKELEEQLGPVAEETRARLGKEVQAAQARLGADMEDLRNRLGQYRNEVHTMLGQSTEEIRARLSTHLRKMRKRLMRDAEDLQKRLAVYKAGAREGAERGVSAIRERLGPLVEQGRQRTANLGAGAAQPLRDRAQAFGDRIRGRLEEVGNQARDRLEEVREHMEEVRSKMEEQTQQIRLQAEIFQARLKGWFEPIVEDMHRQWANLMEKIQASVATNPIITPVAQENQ

[3] = biological target: T1, recombinant alipidated human ApoE4; assay: SPR, biotinylated recombinant apoE4 captured on a streptavidin chip; column Ka (1/Ms)
Description: as §1, §2

[4] = biological target: T1, recombinant alipidated human ApoE4; assay: SPR, biotinylated recombinant apoE4 captured on a streptavidin chip; column Kd (1/s)
Description: as §1, §2

[5] = biological target: T1, recombinant alipidated human ApoE4; assay: SPR (Biacore T200), biotinylated ApoE4 captured on anti-biotin mAb chip, antibody injected, 1:1 fit
Procedure, shortened: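 Biotinylated recombinant alipidated human ApoE4 (E. coli-expressed or commercial) captured on immobilized anti-biotin mAb; antibody serial dilutions injected at 30 μl/min, e.g. 3-min association, 10-min dissociation. Responses reference-subtracted against irrelevant-IgG flow cell; kinetics from 1:1 Langmuir simultaneous fit of Kon and Koff.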

[6] = biological target: T3, recombinant alipidated human ApoE3 (human, UniProt P02649 19-317); assay: direct ELISA on coated recombinant alipidated ApoE (0.5 ug/ml)
T3 construct: mature; full length recombinant protein made in E. coli or bought
T3 sequence (P02649 19-317): as the sequence (P02649 19-317 C130R) above, with R112C counted along it
Procedure, shortened: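 Antibody dose-response curves were built by HRP-conjugated goat anti-mouse IgG detection of anti-ApoE antibodies bound to blocked plates. The coat was full-length alipidated recombinant ApoE at 0.5 μg/ml, applied overnight, either E. coli-expressed and purified or commercially sourced.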

[7] = biological target: T4, heat-induced aggregates of ApoE3 (human, UniProt P02649 19-317); assay: ELISA: pellet of heat-aggregated ApoE3 coated at 0.5 ug/ml, antibody titrated, HRP goat anti-mouse IgG, OD650
T4 construct: mature; aggregated state of the recombinant protein; also called heat treated ApoE3
T4 sequence (P02649 19-317): as the sequence (P02649 19-317 C130R) above, with R112C counted along it
Description: The aggregated ApoE was induced by incubating ApoE at 1 mg/ml concentration at 40° C. for 24 hours. The aggregates then were recovered in the pellet fraction following ultracentrifugation at 186,000 g for 1 hour. For ELISA, the untreated ApoE or heat-induced aggregates of ApoE were coated directly to ELISA plates at 0.5 μg/ml overnight at 4° C. After three washes with PBS, the wells were blocked with 1% BSA-PBS for 1 hour at room temperature with shaking at 500 rpm. The blocked wells were washed once with PBS and subsequently loaded with antibodies at serial concentrations (starting at 100 nM with 5-fold dilutions thereafter). Bound antibodies were detected with HRP-labeled goat anti-mouse IgG (Jackson Immunoresearch) and visualized with TMB substrate at OD₆₅₀ (reaction stopped with BioFX stop solution).

B1: HJ151 (antibody, V domains shown)
VH: QVQLQQSGAELVRPGASVTLSCKASGYTFTDYEMHWVKQTPVHGLEWIGVIDPEKGGTAYNQKFKGKAILTADKSSSTAYMDLRSLTSEDSAVYYCLKDSWGQGTTLTVSS
VL: DVLMTQTPLSLPVSLGDQASISCRSSQTIVHSDGNTYLEWYLQKPGQSPKLLIYKVSNRFSGVPDRFSGSGSGTYFTLKISRVEAEDLGVYYCFQGSHVPCTFGGGTKLEIKR
notes: murine monoclonal antibody from hybridoma; also called HJ151B (biotinylated)
[1]
  Kd: 60.2 nM
[2]
  binding result: no binding
[3]
  kon: 19700 M⁻¹ s⁻¹
[4]
  koff: 0.00119 s⁻¹
[5]
  Kd: 60.2 nM
  koff: 0.00119 s⁻¹
  kon: 19700 M⁻¹ s⁻¹

B2: HJ156 (antibody, V domains shown)
VH: QVQLQQSGPELVKPGASVKISCKASGYIFTDYYINWVKRRPGQGLEWIGWIFPGSGVSYYNEQFKGKATLTVDKPSNTAYIFLSRLTSEDSAVYFCARYYSSSPFAYWGQGTLVTVSA
VL: B1 VL with T28N, V30I, D33N, Y41F, K44R, K50E, Y75D, C101Y
notes: murine monoclonal antibody from hybridoma; also called HJ156B (biotinylated)
[1]
  Kd: 198 nM
[2]
  binding result: no binding
[3]
  kon: 26400 M⁻¹ s⁻¹
[6]
  EC50: 1.69 nM
[7]
  EC50 (read off the curve): ~0.09 nM
[4]
  koff: 0.00523 s⁻¹
[5]
  Kd: 216 nM
  koff: 0.00449 s⁻¹
  kon: 20700 M⁻¹ s⁻¹

B3: HJ154 (antibody, V domains shown)
VH: QVQLQQPGTEFVMSGASVMLSCKASGYIFTNYWLHWVKQRPGHGLEWIGEIDPSDSYSICNDNFKGKSTLTVDKSSSTAYMQLSSLTSEDSAVYYCAGSLGRVGLAYWGQGTLVTVST
VL: QIVLTQSPAIMSASPGEKVTMSCSASSSVSNMYWYQQKPGSSPKSWIYRTSNLASGVPARFSGSGSGTSYSLTISNMEAEDAATYYCQHYQNYPLTFGAGTKLELKR
notes: murine monoclonal antibody from hybridoma; also called HJ154B (biotinylated)
[6]
  EC50: 0.24 nM
[7]
  EC50 (read off the curve): 0.16 to 0.2 nM
[5]
  Kd: 0.675 nM
  koff: 0.000348 s⁻¹
  kon: 516000 M⁻¹ s⁻¹
